The values below come from US20060018915A1 (EPIMUNNE, published 2006).

Test in all cases: HLA binding, candidate-epitope table; assay not described
One test concerns the target T1, A*0101 (human, UniProt P61769 21-119).
T1 construct: MHC class I molecule; form in the assay not described; also called HLA-A*0101

A further test concerns the target T2, A*0301 (human, UniProt P61769 21-119).
T2 construct: MHC class I molecule; form in the assay not described; also called HLA-A*0301

For the next test, the target named is T3, A*3101 (human, UniProt P61769 21-119, limits assumed).
T3 construct: MHC class I molecule; form in the assay not described; also called HLA-A*3101
T3 sequence (P61769 21-119 limits assumed, chain 2 of 2, other chains not shown): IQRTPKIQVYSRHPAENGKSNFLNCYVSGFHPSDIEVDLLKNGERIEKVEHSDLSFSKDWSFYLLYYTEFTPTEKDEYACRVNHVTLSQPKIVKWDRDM

In a further test the target is T4, A*6801 (human, UniProt P61769 21-119, limits assumed).
T4 construct: MHC class I molecule; form in the assay not described; also called HLA-A*6801
T4 sequence (P61769 21-119 limits assumed, chain 2 of 2, other chains not shown): as above

T1 sequence (P61769 21-119 limits assumed, chain 2 of 2, other chains not shown): as above
T2 sequence (P61769 21-119 limits assumed, chain 2 of 2, other chains not shown): as above

As usually defined, the IC50 is the concentration that gives 50% inhibition. Read a high IC50 as lower potency. In the test with A*0101, GSDCTTIHYNY (also called 52.0136) [p53.226] yielded an IC50 of 68 nM.

Turning to VVFGILIKR (also called 1095.51) [Her2/neu.669], the 50% inhibitory concentration (IC50) in the test with A*0301 is 100 nM; in the test with A*3101, 13 nM; in the test with A*6801, 4 nM.
